Source: patent publication US20150065381A1
Several values for one entry are separate records, joined by “and”; a condition that tells them apart may be missing. Equal values may be shown once.

Assays:
[1] = biological target: BG505 envelope (gp120 monomer released from lysed pseudovirus) (HIV-1); test: antigen capture ELISA, mAb 0.3 ug/ml, plate 1
[2] = biological target: aMLV envelope (from lysed pseudovirus); test: antigen capture ELISA, mAb 0.3 ug/ml, plate 1
[3] = biological target: HIV-1 envelope clone BF-002.c08 (multiclade gp160 clone panel) (HIV-1); test: capture ELISA, plate 2, mAb 0.3 ug/ml
[4] = biological target: HIV-1 envelope of gp160 clone B-Acute-009-c08 (HIV-1); test: capture ELISA, plate 2, mAb 0.3 ug/ml
[5] = biological target: HIV-1 envelope clone F1-002.c16 (multiclade gp160 clone panel) (HIV-1); test: capture ELISA, plate 2, mAb 0.3 ug/ml
[6] = biological target: HIV-1 envelope of gp160 clone B-Chronic-014.c02 (HIV-1); test: capture ELISA, plate 2, mAb 0.3 ug/ml
[7] = biological target: HIV-1 envelope of gp160 clone AG-010.c14 (HIV-1); test: capture ELISA, plate 2, mAb 0.3 ug/ml
[8] = biological target: HIV-1 envelope of gp160 clone B-Acute-010.c09 (HIV-1); test: capture ELISA, plate 2, mAb 0.3 ug/ml
[9] = biological target: HIV-1 envelope of gp160 clone B-Acute-010.c08 (HIV-1); test: capture ELISA, plate 2, mAb 0.3 ug/ml
[10] = biological target: HIV-1 envelope of gp160 clone B-Acute-008.c11 (HIV-1); test: capture ELISA, plate 2, mAb 0.3 ug/ml
[11] = biological target: HIV-1 envelope clone F1-002.c11 (multiclade gp160 clone panel) (HIV-1); test: capture ELISA, plate 2, mAb 0.3 ug/ml
[12] = biological target: HIV-1 envelope of gp160 clone AG-010.c11 (HIV-1); test: capture ELISA, plate 2, mAb 0.3 ug/ml
[13] = biological target: HIV-1 envelope clone G-011.c05 (multiclade gp160 clone panel) (HIV-1); test: capture ELISA, plate 2, mAb 0.3 ug/ml
[14] = biological target: HIV-1 envelope clone BF-002.c05 (multiclade gp160 clone panel) (HIV-1); test: capture ELISA, plate 2, mAb 0.3 ug/ml
[15] = biological target: HIV-1 envelope clone G-011.c02 (multiclade gp160 clone panel) (HIV-1); test: capture ELISA, plate 2, mAb 0.3 ug/ml
[16] = biological target: HIV-1 JRCSF envelope (HIV-1) (UniProt P20871); test: capture ELISA, plate 2, mAb 0.3 ug/ml
[17] = biological target: BG505 envelope (gp120 monomer released from lysed pseudovirus) (HIV-1); test: antigen capture ELISA, mAb 0.8 ug/ml, plate 2
[18] = biological target: aMLV envelope (from lysed pseudovirus); test: antigen capture ELISA, mAb 0.8 ug/ml, plate 2
[19] = biological target: HIV-1 envelope clone BF-002.c08 (multiclade gp160 clone panel) (HIV-1); test: capture ELISA, plate 1, mAb 0.8 ug/ml
[20] = biological target: HIV-1 envelope of gp160 clone B-Acute-009-c08 (HIV-1); test: capture ELISA, plate 1, mAb 0.8 ug/ml
[21] = biological target: HIV-1 envelope clone F1-002.c16 (multiclade gp160 clone panel) (HIV-1); test: capture ELISA, plate 1, mAb 0.8 ug/ml
[22] = biological target: HIV-1 envelope of gp160 clone B-Chronic-014.c02 (HIV-1); test: capture ELISA, plate 1, mAb 0.8 ug/ml
[23] = biological target: HIV-1 envelope of gp160 clone AG-010.c14 (HIV-1); test: capture ELISA, plate 1, mAb 0.8 ug/ml
[24] = biological target: HIV-1 envelope of gp160 clone B-Acute-010.c09 (HIV-1); test: capture ELISA, plate 1, mAb 0.8 ug/ml
[25] = biological target: HIV-1 envelope of gp160 clone B-Acute-010.c08 (HIV-1); test: capture ELISA, plate 1, mAb 0.8 ug/ml
[26] = biological target: HIV-1 envelope of gp160 clone B-Acute-008.c11 (HIV-1); test: capture ELISA, plate 1, mAb 0.8 ug/ml
[27] = biological target: HIV-1 envelope clone F1-002.c11 (multiclade gp160 clone panel) (HIV-1); test: capture ELISA, plate 1, mAb 0.8 ug/ml
[28] = biological target: HIV-1 envelope of gp160 clone AG-010.c11 (HIV-1); test: capture ELISA, plate 1, mAb 0.8 ug/ml
[29] = biological target: HIV-1 envelope clone G-011.c05 (multiclade gp160 clone panel) (HIV-1); test: capture ELISA, plate 1, mAb 0.8 ug/ml
[30] = biological target: HIV-1 envelope clone BF-002.c05 (multiclade gp160 clone panel) (HIV-1); test: capture ELISA, plate 1, mAb 0.8 ug/ml
[31] = biological target: HIV-1 envelope clone G-011.c02 (multiclade gp160 clone panel) (HIV-1); test: capture ELISA, plate 1, mAb 0.8 ug/ml
[32] = biological target: HIV-1 JRCSF envelope (HIV-1) (UniProt P20871); test: capture ELISA, plate 1, mAb 0.8 ug/ml
[33] = biological target: BG505 envelope (gp120 monomer released from lysed pseudovirus) (HIV-1); test: antigen capture ELISA, mAb 2.5 ug/ml, plate 2
[34] = biological target: aMLV envelope (from lysed pseudovirus); test: antigen capture ELISA, mAb 2.5 ug/ml, plate 2
[35] = biological target: HIV-1 JRFL envelope (HIV-1); test: capture ELISA, plate 2, mAb 0.3 ug/ml
[36] = biological target: HIV-1 16055 envelope (HIV-1); test: capture ELISA, plate 2, mAb 0.3 ug/ml
[37] = biological target: HIV-1 JRFL envelope (HIV-1); test: capture ELISA, plate 1, mAb 0.8 ug/ml
[38] = biological target: HIV-1 16055 envelope (HIV-1); test: capture ELISA, plate 1, mAb 0.8 ug/ml

| Substance | ELISA OD [1] | ELISA OD [2] | ELISA OD [4] | ELISA OD [6] | ELISA OD [7] | ELISA OD [8] | ELISA OD [9] | ELISA OD [10] | ELISA OD [12] | ELISA OD [13] | ELISA OD [15] | ELISA OD [16] | ELISA OD [17] | ELISA OD [18] | ELISA OD [20] | ELISA OD [22] | ELISA OD [23] | ELISA OD [24] | ELISA OD [25] | ELISA OD [26] | other results |
| --- | --- | --- | --- | --- | --- | --- | --- | --- | --- | --- | --- | --- | --- | --- | --- | --- | --- | --- | --- | --- | --- |
| PG16 (antibody) | 0.067 OD | 0.053 OD and 0.096 OD | 0.077 OD | 0.222 OD | 0.337 OD | 0.071 OD | 0.11 OD | 0.141 OD | 0.167 OD | 0.095 OD | 0.09 OD | 0.133 OD and 0.167 OD | 0.165 OD | 0.072 OD and 0.064 OD | 0.058 OD | 0.365 OD | 0.491 OD | 0.073 OD | 0.132 OD | 0.164 OD | ELISA OD [3]: 0.097 OD; ELISA OD [5]: 0.224 OD; ELISA OD [11]: 0.098 OD; ELISA OD [14]: 0.361 OD; ELISA OD [19]: 0.134 OD; ELISA OD [21]: 0.341 OD; ELISA OD [27]: 0.146 OD; ELISA OD [28]: 0.177 OD; ELISA OD [29]: 0.099 OD; ELISA OD [30]: 0.518 OD; ELISA OD [31]: 0.057 OD; ELISA OD [32]: 0.169 OD and 0.154 OD; ELISA OD [33]: 0.103 OD; ELISA OD [34]: 0.067 OD and 0.069 OD |
| PGT145 (antibody) | 0.066 OD | 0.057 OD and 0.116 OD | 0.084 OD | 0.058 OD | 0.061 OD | 0.082 OD | 0.088 OD | 0.092 OD | 0.075 OD | 0.074 OD | 0.104 OD | 0.067 OD and 0.115 OD | 0.066 OD | 0.062 OD | 0.062 OD | 0.083 OD | 0.054 OD | 0.06 OD | 0.114 OD | 0.078 OD | ELISA OD [35]: 0.068 OD and 0.08 OD; ELISA OD [3]: 0.088 OD; ELISA OD [5]: 0.254 OD; ELISA OD [36]: 0.066 OD and 0.1 OD; ELISA OD [11]: 0.059 OD; ELISA OD [14]: 0.114 OD; ELISA OD [37]: 0.057 OD and 0.051 OD; ELISA OD [19]: 0.054 OD; ELISA OD [21]: 0.269 OD; ELISA OD [38]: 0.065 OD and 0.059 OD; ELISA OD [27]: 0.067 OD; ELISA OD [28]: 0.054 OD; ELISA OD [29]: 0.08 OD; ELISA OD [30]: 0.169 OD; ELISA OD [31]: 0.062 OD; ELISA OD [32]: 0.058 OD and 0.056 OD; ELISA OD [33]: 0.077 OD; ELISA OD [34]: 0.07 OD and 0.066 OD |
| PG9 (antibody) | 0.162 OD | 0.068 OD and 0.067 OD | 0.057 OD | 0.479 OD | 0.274 OD | 0.074 OD | 0.079 OD | 0.097 OD | 0.257 OD | 0.076 OD | 0.052 OD | 0.113 OD and 0.131 OD | 0.261 OD | 0.056 OD and 0.051 OD | 0.076 OD | 1.22 OD | 0.67 OD | 0.08 OD | 0.161 OD | 0.168 OD | ELISA OD [35]: 0.06 OD and 0.056 OD; ELISA OD [36]: 0.118 OD and 0.146 OD; ELISA OD [37]: 0.064 OD and 0.096 OD; ELISA OD [38]: 0.313 OD and 0.242 OD; ELISA OD [28]: 0.506 OD; ELISA OD [29]: 0.172 OD; ELISA OD [31]: 0.064 OD; ELISA OD [32]: 0.24 OD and 0.235 OD; ELISA OD [33]: 0.346 OD; ELISA OD [34]: 0.059 OD and 0.053 OD |
| PGV04 (antibody) | 0.45 OD | 0.052 OD and 0.057 OD | 0.075 OD | 1.52 OD | 0.096 OD | 0.424 OD | 0.303 OD | 0.129 OD | 0.103 OD | 0.123 OD | 0.189 OD | 0.525 OD and 0.588 OD | 0.745 OD | 0.085 OD | 0.079 OD | 2.9 OD | 0.15 OD | 0.902 OD | 0.631 OD | 0.053 OD | ELISA OD [3]: 0.758 OD; ELISA OD [5]: 0.142 OD; ELISA OD [11]: 0.064 OD; ELISA OD [14]: 1 OD; ELISA OD [19]: 1.27 OD; ELISA OD [21]: 0.118 OD; ELISA OD [27]: 0.079 OD; ELISA OD [28]: 0.101 OD; ELISA OD [29]: 0.136 OD; ELISA OD [30]: 1.91 OD; ELISA OD [31]: 0.282 OD; ELISA OD [32]: 0.896 OD and 1.04 OD; ELISA OD [33]: 1.04 OD; ELISA OD [34]: 0.085 OD and 0.089 OD |
| PGT151 (antibody) | 0.057 OD | 0.068 OD and 0.057 OD | 0.063 OD | 0.216 OD | 0.121 OD | 0.072 OD | 0.149 OD | 0.234 OD | 0.075 OD | 0.057 OD | 0.116 OD | 0.069 OD and 0.065 OD | 0.054 OD | 0.054 OD and 0.078 OD | 0.066 OD | 0.148 OD | 0.102 OD | 0.055 OD | 0.124 OD | 0.174 OD | ELISA OD [35]: 0.073 OD and 0.088 OD; ELISA OD [3]: 0.09 OD; ELISA OD [5]: 0.107 OD; ELISA OD [36]: 0.054 OD and 0.096 OD; ELISA OD [11]: 0.058 OD; ELISA OD [14]: 0.1 OD; ELISA OD [37]: 0.066 OD and 0.05 OD; ELISA OD [19]: 0.05 OD; ELISA OD [21]: 0.068 OD; ELISA OD [38]: 0.056 OD and 0.061 OD; ELISA OD [27]: 0.065 OD; ELISA OD [28]: 0.057 OD; ELISA OD [29]: 0.071 OD; ELISA OD [30]: 0.117 OD; ELISA OD [31]: 0.061 OD; ELISA OD [32]: 0.058 OD and 0.056 OD; ELISA OD [33]: 0.063 OD; ELISA OD [34]: 0.075 OD and 0.104 OD |
